This is an account of results in patent US20220241406A1.

The test concerns the target IgE antibodies of four Pru p 7 reactive human sera. Description: ImmunoCAP IgE inhibition, inhibitor at 20 ug/mL in solution, rPru p 7 on solid phase, against dilution buffer control.

B1: recombinant Cup s GRPb (protein)
chain: AQIDCDKECNRRCSKASLHDRCLKYCGICCEKCHCVPPGTAGNEDVCPCYAHLKNSKGGHKCP
For B1, the percent inhibition of IgE binding to rPru p 7 (fourth serum) was determined as 80%.
